Results from patent publication US20170129940A1 (INSTITUTE FOR RESEARCH IN BIOMEDICINE, published 2017).
Changes are numbered by the printed parent chain.

B1: 5F1 (antibody, V domains shown)
VH: AVQLVESGGGLAQPGRSLRLSCKVSGFTFSSYEMNWVRQAPGKGLEWIAYIDFTGSTIYYADSVKGRFTISRDTARNSLYLQMNKLRVEDTAVYYCVRDAGRWGTSWYYFDYWGQGTLVTVSS
VL: QSVLTQPPSVSGAPGQRVTISCTGLSSNIGAGYDIHWYQQIPGKAPKLLIYGNNNRPSGVPDRFSGSKSGTSVSLAITGLQAEDEADYYCQSYDSSLNGWVFGGGTRLTVL
notes: human IgG; also called 5F1-biotin
B2: 10C6 (antibody, V domains shown)
VH: B1 VH with T28S, S31N, Y32F, A61S
VL: B1 VL
notes: human IgG; also called 10C6-biotin
B3: 6B4 (antibody, V domains shown)
VH: QVQLVESGGGVVQPGRSLRLSCAASGFRFNEFNMHWVRQAPGKGLEWVAVISIDGRHKYNADSVEGRFTISRDNSRNTLYLQMNSLRVEDTALYYCVTDGKAVDGFSGILEFWGQGTPVTVST
VL: EIVLTQSPATLSLSPGERATLSCWASQSVGGYLAWYQQKPGQAPRLLIYDASIRATGIPARFSGSGSGTHFTLTINSLEPEDFAVYYCQQRNNWPPLTFGGGTKVEIK
notes: human IgG; also called 6B4-biotin
B4: 7H3 (antibody, V domains shown)
VH: QVQLVQSGAEVKNPGASVKVSCKASGYTFTDYYIHWVRQAPGQGLEWMGWFNPNSGGTNFVQNFQGRVTMTRDTSISTAYMELSRLRSDDTAMYYCAKDSAKTASAYYGLNFFYYGMDVWGQGTTVTVSS
VL: QSVLSQPPSASGTPGQRVTISCSGSSSNIGKNYVYWYQQVPGTAPKLLMFKNNQRPSGVPDRFSGSKSGTSASLAISGLRSEDEADYYCSAWDGSLSRPLFGGGTKVTVL
notes: human IgG; also called 7H3-biotin
B5: 15D8 (antibody, V domains shown)
VH: EVQLVQSGAEVKKPGESLKISCQASGYSFTNYWIAWVRQMPGKGLEWMGIIYPGDSDIKYSPSFRGQVTISADKSISNAFLQWRSLRASDTAMYYCARHAIRGDGFDYWGQGTLVTVSS
VL: SYELTQPPSVSVSPGQTATITCSGDKLGEKYACWYQQKPGQSPVLVMYQDTKRPSGIPERFSGSNSGNTATLTISGTRAMDEADYYCQAWDTNTVIFGGGTKLTVL
B6: 6L3 (antibody, V domains shown)
VH: EVRLEESGGGLVQPGGSLRLSCAASGFTVSTTYMAWVRQAPGKGLEWVSLIHTGGIFGVGGTSYADSVKGRFTISRDTSKNTVSLQMSSLRVEDTAIYFCAREHRGTIDAFDAWGQGTVVIVSS
VL: DIHMTQSPSSLSASVGDRVTITCRASQNIRNYLNWYQHKPGKAPKLLIYTTSRLQSGVPSRFSGSGSGTDFTLTVNSLQPEDFASYYCQQSYDGWTFGQGTKVEMK
B7: 4H9 (antibody, V domains shown)
VH: AVQLVESGGGLVRPGGSLRLSCAASGFTFSSHEMHWVRQAPGKGLEWLSYIDFTGSIIYYADSVRGRFTISRDNTKKSLFLQMNSLRDEDTALYYCARDGGRWGTSWYYFDYWGQGVLVTVSS
VL: QSVLTQPPSVSGAPGQRVTITCTGSSSNFGAGYDGHWYQQLPGTAPKLLIYGSNRPSGVPDRFSGSKSGTSVSLAITGLQADDEADYYCQSYDSSLSAWVFGGGTKLTVL
notes: human IgG; also called 4H9-biotin
B8: 8I21 (antibody, V domains shown)
VH: LVELVESGGGVVQPGRSLRLSCAASGFTFSSDGMHWVRQSPGRGLEWVAFISSDGSTPYYADSVKGRFTISRDNSKNTLYLQMNSLRAEDTAMYFCAKDWALFRWLRTFDHWGQGTLVTVSS
VL: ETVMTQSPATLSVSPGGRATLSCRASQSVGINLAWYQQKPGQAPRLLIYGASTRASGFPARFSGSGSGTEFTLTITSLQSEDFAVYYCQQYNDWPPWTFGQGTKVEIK
B9: 2B11 (antibody, V domains shown)
VH: B1 VH with Q3R, K23Q, S30G, D73N, K85S, L118R, S123P
VL: B1 VL with L25I, I50V, A82V, S95N
notes: human IgG; also called 2B11-biotin

target: T1, hCMV gB (expressed in HEK293T cells) (human cytomegalovirus, UniProt P06473 32-906); test: cell-based or functional assay
T1 sequence (P06473 32-906 limits assumed): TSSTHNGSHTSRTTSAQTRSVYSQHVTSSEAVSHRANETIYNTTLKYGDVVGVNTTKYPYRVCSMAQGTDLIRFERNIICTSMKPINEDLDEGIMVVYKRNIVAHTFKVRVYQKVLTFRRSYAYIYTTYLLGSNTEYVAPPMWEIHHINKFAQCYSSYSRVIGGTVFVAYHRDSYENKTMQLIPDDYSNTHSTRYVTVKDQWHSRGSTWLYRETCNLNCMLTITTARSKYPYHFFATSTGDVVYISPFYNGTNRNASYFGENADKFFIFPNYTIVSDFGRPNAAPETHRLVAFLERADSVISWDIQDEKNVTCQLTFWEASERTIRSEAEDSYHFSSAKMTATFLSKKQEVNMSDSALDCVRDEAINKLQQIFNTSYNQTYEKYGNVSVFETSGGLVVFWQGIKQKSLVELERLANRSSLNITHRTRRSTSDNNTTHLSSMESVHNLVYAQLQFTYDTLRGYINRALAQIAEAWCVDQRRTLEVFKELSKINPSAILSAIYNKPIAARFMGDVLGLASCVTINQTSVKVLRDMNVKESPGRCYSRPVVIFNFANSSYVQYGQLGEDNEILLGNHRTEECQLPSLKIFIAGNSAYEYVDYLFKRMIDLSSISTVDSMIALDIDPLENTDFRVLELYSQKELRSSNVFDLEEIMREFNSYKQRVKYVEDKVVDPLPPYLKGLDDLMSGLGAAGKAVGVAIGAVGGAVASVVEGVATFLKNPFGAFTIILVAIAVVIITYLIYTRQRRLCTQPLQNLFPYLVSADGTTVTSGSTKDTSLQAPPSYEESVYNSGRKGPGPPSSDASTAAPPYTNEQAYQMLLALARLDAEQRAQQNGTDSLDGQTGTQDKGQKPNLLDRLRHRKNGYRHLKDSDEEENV

| Binder | 50% Neutralization BM-MSC [µg/mL] | 50% Neutralization Mo-DC [µg/mL] |
| --- | --- | --- |
| B1 | 0.3 | 0.05 |
| B2 | 0.3 | 0.02 |
| B3 | 2 | 0.11 |
| B4 | 2 | 0.06 |

target: T2, hCMV UL128 (expressed in HEK293T cells) (human cytomegalovirus, UniProt P16837 28-171); test: cell-based or functional assay
T2 sequence: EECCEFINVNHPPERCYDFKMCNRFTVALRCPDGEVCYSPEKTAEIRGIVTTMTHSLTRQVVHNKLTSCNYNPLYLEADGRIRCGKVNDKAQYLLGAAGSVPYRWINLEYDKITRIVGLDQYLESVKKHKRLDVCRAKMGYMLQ

| Binder | 50% Neutralization ARPE [µg/mL] | 50% Neutralization MRC-9 [µg/mL] |
| --- | --- | --- |
| B5 | < 0.001 | > 2 |

target: T3, hCMV gM + gN (co-expressed in HEK293T cells) (human cytomegalovirus, UniProt P16733 1-372; P16795 22-138); test: cell-based or functional assay
T3 sequence 1: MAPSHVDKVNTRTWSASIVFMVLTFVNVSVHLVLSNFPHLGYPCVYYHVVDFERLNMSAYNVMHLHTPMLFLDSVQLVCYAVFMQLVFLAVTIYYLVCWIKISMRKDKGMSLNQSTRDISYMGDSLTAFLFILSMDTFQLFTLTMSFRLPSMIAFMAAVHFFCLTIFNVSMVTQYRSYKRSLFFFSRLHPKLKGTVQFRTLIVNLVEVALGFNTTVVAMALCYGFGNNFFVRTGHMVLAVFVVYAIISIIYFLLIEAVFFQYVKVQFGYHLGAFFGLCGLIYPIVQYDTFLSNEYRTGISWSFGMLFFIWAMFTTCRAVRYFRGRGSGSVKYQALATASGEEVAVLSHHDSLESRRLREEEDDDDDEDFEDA
T3 sequence 2: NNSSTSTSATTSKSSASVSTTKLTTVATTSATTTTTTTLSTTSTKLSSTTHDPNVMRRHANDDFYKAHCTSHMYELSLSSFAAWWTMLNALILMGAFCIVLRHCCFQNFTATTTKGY

| Binder | 50% Neutralization ARPE [µg/mL] |
| --- | --- |
| B6 | ≤ 2 |

target: T1, hCMV gB (expressed in HEK293T cells); test: cell-based or functional assay; remark: another data set of the same source

| Binder | 50% Neutralization ARPE [µg/mL] | 50% Neutralization MRC-9 [µg/mL] |
| --- | --- | --- |
| B7 | ≤ 2 | ≤ 2 |
| B1 | ≤ 2 | ≤ 2 |
| B2 | ≤ 2 | ≤ 2 |
| B3 | ≤ 2 | ≤ 2 |
| B4 | > 2 | ≤ 2 |

target: T4, hCMV gH + gL + UL128 + UL130 (co-expressed in HEK293T cells) (human cytomegalovirus, UniProt P12824 24-743; P16832 31-278; P16837 28-171; P16772 1-214); test: cell-based or functional assay

| Binder | 50% Neutralization ARPE [µg/mL] | 50% Neutralization MRC-9 [µg/mL] |
| --- | --- | --- |
| B8 | < 0.01 | > 2 |

target: T1, hCMV gB (expressed in HEK293T cells); test: competitor: 4H9-biotin; cell staining

| Binder | Inhibition of binding (%) |
| --- | --- |
| B7 | 100 |
| B1 | 100 |
| B9 | 100 |
| B2 | 100 |
| B3 | 0 |
| B4 | 0 |

target: T1, hCMV gB (expressed in HEK293T cells); test: competitor: 10C6-biotin; cell staining

| Binder | Inhibition of binding (%) |
| --- | --- |
| B7 | 100 |
| B1 | 100 |
| B9 | 100 |
| B2 | 100 |
| B3 | 0 |
| B4 | 0 |

target: T1, hCMV gB (expressed in HEK293T cells); test: competitor: 6B4-biotin; cell staining

| Binder | Inhibition of binding (%) |
| --- | --- |
| B7 | 0 |
| B1 | 0 |
| B9 | 0 |
| B2 | 0 |
| B3 | 100 |
| B4 | 0 |

target: T2, hCMV UL128 (expressed in HEK293T cells); test: cell-based or functional assay; remark: another data set of the same source

| Binder | 90% Neutralization ARPE [µg/mL] | 90% Neutralization MRC-9 [µg/mL] |
| --- | --- | --- |
| B5 | 0.008 | > 10 |

target: T3, hCMV gM + gN (co-expressed in HEK293T …); test: cell-based or functional assay; remark: another data set of the same source

| Binder | 90% Neutralization ARPE [µg/mL] | 90% Neutralization MRC-9 [µg/mL] |
| --- | --- | --- |
| B6 | 10 | 30 |

target: T1, hCMV gB (expressed in HEK293T cells); test: cell-based or functional assay; remark: another data set of the same source

| Binder | 90% Neutralization ARPE [µg/mL] | 90% Neutralization MRC-9 [µg/mL] |
| --- | --- | --- |
| B7 | 0.4 | 10 |
| B1 | 0.1 | 0.5 |
| B9 | 0.2 | 0.75 |
| B2 | 0.2 | 0.75 |
| B3 | 0.15 | 1 |
| B4 | 0.6 | 3 |

target: T4, hCMV gH + gL + UL128 + UL130 …; test: cell-based or functional assay; remark: another data set of the same source

| Binder | 90% Neutralization ARPE [µg/mL] | 90% Neutralization MRC-9 [µg/mL] |
| --- | --- | --- |
| B8 | 0.03 | > 10 |

target: T1, hCMV gB (expressed in HEK293T cells); test: competitor: 5F1-biotin; cell staining

| Binder | Inhibition of binding (%) |
| --- | --- |
| B7 | 100 |
| B1 | 100 |
| B9 | 100 |
| B2 | 100 |
| B3 | 0 |
| B4 | 0 |

target: T1, hCMV gB (expressed in HEK293T cells); test: competitor: 7H3-biotin; cell staining

| Binder | Inhibition of binding (%) |
| --- | --- |
| B7 | 0 |
| B1 | 0 |
| B9 | 0 |
| B2 | 0 |
| B3 | 0 |
| B4 | 100 |

target: T1, hCMV gB (expressed in HEK293T cells); test: competitor: 2B11-biotin; cell staining

| Binder | Inhibition of binding (%) |
| --- | --- |
| B7 | 100 |
| B1 | 100 |
| B9 | 100 |
| B2 | 100 |
| B3 | 0 |
| B4 | 0 |
